Data: article PMC4766014, “Structures of Two Melanoma-Associated Antigens Suggest Allosteric Regulation of Effector Binding” (PLoS ONE, 2016)

B1: MAGE-A3 C-terminally truncated construct, residues 104-294 (domain or fragment, human, UniProt P43357 104-294, looked up)
chain: EFQAALSRKVAELVHFLLLKYRAREPVTKAEMLGSVVGNWQYFFPVIFSKASSSLQLVFGIELMEVDPIGHLYIFATCLGLSYDGLLGDNQIMPKAGLLIIVLAIIAREGDCAPEEKIWEELSVLEVFEGREDSILGDPKKLLTQHFVQENYLEYRQVPGSDPACYEFLWGPRALVETSYVKVLHHMVKIS
notes: MAGE-A3, human, residues 104-294 (lacks the final 20 residues of the crystallized construct); also called MAGE-A3^104-294
B2: MAGE-A3 MHD domain, residues 104-314 (domain or fragment, human, UniProt P43357 104-314, looked up)
chain: EFQAALSRKVAELVHFLLLKYRAREPVTKAEMLGSVVGNWQYFFPVIFSKASSSLQLVFGIELMEVDPIGHLYIFATCLGLSYDGLLGDNQIMPKAGLLIIVLAIIAREGDCAPEEKIWEELSVLEVFEGREDSILGDPKKLLTQHFVQENYLEYRQVPGSDPACYEFLWGPRALVETSYVKVLHHMVKISGGPHISYPPLHEWVLREGEE
notes: MAGE-A3, human, MAGE homology domain (MHD), residues 104-314; Dimer in solution by AUC and SAXS (dimer B interface); The final 4 residues are disordered in the crystal structure; also called MAGE-A3^104-314; melanoma associated antigen A3

Target: the molecule itself
Assay: AUC; sedimentation velocity, 4°C, 45,000 rpm, 10 mM HEPES pH 7.5, 150 mM NaCl, 0.5 mM TCEP; MAGE-A3 at 0.75 mg/ml, MAGE-A4 at 0.5 mg/ml; c(s) analysis with SEDFIT

Protein	stoichiometry N
B1	2
B2	2
